The supplement of paper PMC9112550, “Optimization of the antimicrobial peptide Bac7 by deep mutational scanning” (BMC Biology, 2022)

System: Escherichia coli TOP10
Experiment: shrunken log2 fold change of peptide-encoding DNA abundance (4.5 h post-induction vs induction); higher = less antimicrobial activity (less host growth inhibition)
Settings: time post-induction: 4.5 h; library: site-saturation at positions 5, 18, 19, 20
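Note: peptides expressed intracellularly from a pBAD plasmid library in pooled LB shake-flask culture, induced with 0.3% L-arabinose, DNA abundance read by NGS, three biological replicates, DESeq2 with apeglm shrinkage.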

Sequence: RRIRARPPRLPRPRPRPICRPRP
- shrunken log2 fold change: 0.349

Sequence: RRIRARPPRLPRPRPRPIDAPRP
- shrunken log2 fold change: 0.0272

Sequence: RRIRARPPRLPRPRPRPIDGPRP
- shrunken log2 fold change: 0.00408

Sequence: RRIRARPPRLPRPRPRPIDHPRP
- shrunken log2 fold change: -0.00706

Sequence: RRIRARPPRLPRPRPRPIDLPRP
- shrunken log2 fold change: 0.289

Sequence: RRIRARPPRLPRPRPRPIDPPRP
- shrunken log2 fold change: 0.00727

Sequence: RRIRARPPRLPRPRPRPIGPPRP
- shrunken log2 fold change: 0.537

Sequence: RRIRARPPRLPRPRPRPIHTPRP
- shrunken log2 fold change: 0.0197

Sequence: RRIRARPPRLPRPRPRPIKCPRP
- shrunken log2 fold change: -0.249

Sequence: RRIRARPPRLPRPRPRPIKEPRP
- shrunken log2 fold change: -0.0357

Sequence: RRIRARPPRLPRPRPRPIKFPRP
- shrunken log2 fold change: -0.126

Sequence: RRIRARPPRLPRPRPRPIMYPRP
- shrunken log2 fold change: -0.161

Sequence: RRIRARPPRLPRPRPRPINRPRP
- shrunken log2 fold change: 0.0108

Sequence: RRIRARPPRLPRPRPRPIPDPRP
- shrunken log2 fold change: 0.604

Sequence: RRIRARPPRLPRPRPRPIQNPRP
- shrunken log2 fold change: 0.376

Sequence: RRIRARPPRLPRPRPRPIQSPRP
- shrunken log2 fold change: -0.035

Sequence: RRIRARPPRLPRPRPRPIQTPRP
- shrunken log2 fold change: -0.0208

Sequence: RRIRARPPRLPRPRPRPIRCPRP
- shrunken log2 fold change: 0.188

Sequence: RRIRARPPRLPRPRPRPISPPRP
- shrunken log2 fold change: -0.141

Sequence: RRIRARPPRLPRPRPRPIVTPRP
- shrunken log2 fold change: 0.155

Sequence: RRIRARPPRLPRPRPRPIWHPRP
- shrunken log2 fold change: 0.331

Sequence: RRIRARPPRLPRPRPRPIWPPRP
- shrunken log2 fold change: 0.353

Sequence: RRIRARPPRLPRPRPRPIYRPRP
- shrunken log2 fold change: -0.0972

Sequence: RRIRARPPRLPRPRPRPIYSPRP
- shrunken log2 fold change: -0.227

Sequence: RRIRARPPRLPRPRPRPIYWPRP
- shrunken log2 fold change: 0.0177

Sequence: RRIRARPPRLPRPRPRPKAKPRP
- shrunken log2 fold change: 0.287

Sequence: RRIRARPPRLPRPRPRPKANPRP
- shrunken log2 fold change: 0.297

Sequence: RRIRARPPRLPRPRPRPKDCPRP
- shrunken log2 fold change: 0.181

Sequence: RRIRARPPRLPRPRPRPKEGPRP
- shrunken log2 fold change: -0.00115

Sequence: RRIRARPPRLPRPRPRPKFEPRP
- shrunken log2 fold change: 0.574

Sequence: RRIRARPPRLPRPRPRPKFLPRP
- shrunken log2 fold change: 0.288

Sequence: RRIRARPPRLPRPRPRPKFPPRP
- shrunken log2 fold change: 2.15

Sequence: RRIRARPPRLPRPRPRPKGDPRP
- shrunken log2 fold change: -0.07

Sequence: RRIRARPPRLPRPRPRPKGQPRP
- shrunken log2 fold change: 0.296

Sequence: RRIRARPPRLPRPRPRPKHCPRP
- shrunken log2 fold change: 0.0395

Sequence: RRIRARPPRLPRPRPRPKHGPRP
- shrunken log2 fold change: 0.246

Sequence: RRIRARPPRLPRPRPRPKIWPRP
- shrunken log2 fold change: 0.53

Sequence: RRIRARPPRLPRPRPRPKLAPRP
- shrunken log2 fold change: 0.555

Sequence: RRIRARPPRLPRPRPRPKLQPRP
- shrunken log2 fold change: 0.64

Sequence: RRIRARPPRLPRPRPRPKLWPRP
- shrunken log2 fold change: 1

Sequence: RRIRARPPRLPRPRPRPKMWPRP
- shrunken log2 fold change: 0.553

Sequence: RRIRARPPRLPRPRPRPKNIPRP
- shrunken log2 fold change: -0.127

Sequence: RRIRARPPRLPRPRPRPKNPPRP
- shrunken log2 fold change: 0.196

Sequence: RRIRARPPRLPRPRPRPKNTPRP
- shrunken log2 fold change: -0.0664

Sequence: RRIRARPPRLPRPRPRPKQKPRP
- shrunken log2 fold change: 0.529

Sequence: RRIRARPPRLPRPRPRPKSHPRP
- shrunken log2 fold change: -0.184

Sequence: RRIRARPPRLPRPRPRPKTYPRP
- shrunken log2 fold change: -0.214

Sequence: RRIRARPPRLPRPRPRPLAPPRP
- shrunken log2 fold change: 0.619

Sequence: RRIRARPPRLPRPRPRPLCIPRP
- shrunken log2 fold change: -0.143

Sequence: RRIRARPPRLPRPRPRPLCLPRP
- shrunken log2 fold change: 0.132

Sequence: RRIRARPPRLPRPRPRPLCRPRP
- shrunken log2 fold change: 0.327

Sequence: RRIRARPPRLPRPRPRPLCVPRP
- shrunken log2 fold change: 0.183

Sequence: RRIRARPPRLPRPRPRPLESPRP
- shrunken log2 fold change: 0.486

Sequence: RRIRARPPRLPRPRPRPLGEPRP
- shrunken log2 fold change: 0.896

Sequence: RRIRARPPRLPRPRPRPLIIPRP
- shrunken log2 fold change: -0.415

Sequence: RRIRARPPRLPRPRPRPLILPRP
- shrunken log2 fold change: -0.252

Sequence: RRIRARPPRLPRPRPRPLKEPRP
- shrunken log2 fold change: 0.218

Sequence: RRIRARPPRLPRPRPRPLKTPRP
- shrunken log2 fold change: 0.219

Sequence: RRIRARPPRLPRPRPRPLLDPRP
- shrunken log2 fold change: 0.788

Sequence: RRIRARPPRLPRPRPRPLLIPRP
- shrunken log2 fold change: -0.0375

Sequence: RRIRARPPRLPRPRPRPLLVPRP
- shrunken log2 fold change: 0.284

Sequence: RRIRARPPRLPRPRPRPLMFPRP
- shrunken log2 fold change: 0.187

Sequence: RRIRARPPRLPRPRPRPLMHPRP
- shrunken log2 fold change: 0.446

Sequence: RRIRARPPRLPRPRPRPLNFPRP
- shrunken log2 fold change: -0.249

Sequence: RRIRARPPRLPRPRPRPLNIPRP
- shrunken log2 fold change: 0.0473

Sequence: RRIRARPPRLPRPRPRPLNMPRP
- shrunken log2 fold change: -0.502

Sequence: RRIRARPPRLPRPRPRPLNRPRP
- shrunken log2 fold change: 0.0549

Sequence: RRIRARPPRLPRPRPRPLPCPRP
- shrunken log2 fold change: 0.13

Sequence: RRIRARPPRLPRPRPRPLPSPRP
- shrunken log2 fold change: 0.353

Sequence: RRIRARPPRLPRPRPRPLRQPRP
- shrunken log2 fold change: 0.736

Sequence: RRIRARPPRLPRPRPRPLTAPRP
- shrunken log2 fold change: 0.542

Sequence: RRIRARPPRLPRPRPRPMAHPRP
- shrunken log2 fold change: 0.733

Sequence: RRIRARPPRLPRPRPRPMCAPRP
- shrunken log2 fold change: 0.813

Sequence: RRIRARPPRLPRPRPRPMCGPRP
- shrunken log2 fold change: 0.121

Sequence: RRIRARPPRLPRPRPRPMDLPRP
- shrunken log2 fold change: -0.292

Sequence: RRIRARPPRLPRPRPRPMDYPRP
- shrunken log2 fold change: -0.407

Sequence: RRIRARPPRLPRPRPRPMEDPRP
- shrunken log2 fold change: -0.0391

Sequence: RRIRARPPRLPRPRPRPMENPRP
- shrunken log2 fold change: 0.423

Sequence: RRIRARPPRLPRPRPRPMFIPRP
- shrunken log2 fold change: 0.0587

Sequence: RRIRARPPRLPRPRPRPMGLPRP
- shrunken log2 fold change: 0.00193

Sequence: RRIRARPPRLPRPRPRPMGNPRP
- shrunken log2 fold change: -0.101

Sequence: RRIRARPPRLPRPRPRPMGYPRP
- shrunken log2 fold change: 0.0315

Sequence: RRIRARPPRLPRPRPRPMHDPRP
- shrunken log2 fold change: 0.341

Sequence: RRIRARPPRLPRPRPRPMIEPRP
- shrunken log2 fold change: 0.314

Sequence: RRIRARPPRLPRPRPRPMIRPRP
- shrunken log2 fold change: -0.388

Sequence: RRIRARPPRLPRPRPRPMIYPRP
- shrunken log2 fold change: 0.00125

Sequence: RRIRARPPRLPRPRPRPMKLPRP
- shrunken log2 fold change: 0.0594

Sequence: RRIRARPPRLPRPRPRPMLCPRP
- shrunken log2 fold change: 0.637

Sequence: RRIRARPPRLPRPRPRPMLDPRP
- shrunken log2 fold change: 0.504

Sequence: RRIRARPPRLPRPRPRPMLLPRP
- shrunken log2 fold change: -0.0981

Sequence: RRIRARPPRLPRPRPRPMLPPRP
- shrunken log2 fold change: 0.425

Sequence: RRIRARPPRLPRPRPRPMNCPRP
- shrunken log2 fold change: -0.116

Sequence: RRIRARPPRLPRPRPRPMPDPRP
- shrunken log2 fold change: 0.74

Sequence: RRIRARPPRLPRPRPRPMQWPRP
- shrunken log2 fold change: 0.442

Sequence: RRIRARPPRLPRPRPRPMSCPRP
- shrunken log2 fold change: -0.114

Sequence: RRIRARPPRLPRPRPRPMSFPRP
- shrunken log2 fold change: -0.0283

Sequence: RRIRARPPRLPRPRPRPMSIPRP
- shrunken log2 fold change: -0.118

Sequence: RRIRARPPRLPRPRPRPMSPPRP
- shrunken log2 fold change: 0.342

Sequence: RRIRARPPRLPRPRPRPMTEPRP
- shrunken log2 fold change: 0.356

Sequence: RRIRARPPRLPRPRPRPMTNPRP
- shrunken log2 fold change: 0.178

Sequence: RRIRARPPRLPRPRPRPMVTPRP
- shrunken log2 fold change: 0.21

Sequence: RRIRARPPRLPRPRPRPMWNPRP
- shrunken log2 fold change: -0.342

Sequence: RRIRARPPRLPRPRPRPMWQPRP
- shrunken log2 fold change: -0.00908

Sequence: RRIRARPPRLPRPRPRPNAWPRP
- shrunken log2 fold change: 0.44

Sequence: RRIRARPPRLPRPRPRPNCVPRP
- shrunken log2 fold change: 0.23

Sequence: RRIRARPPRLPRPRPRPNCWPRP
- shrunken log2 fold change: 0.563

Sequence: RRIRARPPRLPRPRPRPNDMPRP
- shrunken log2 fold change: -0.00462

Sequence: RRIRARPPRLPRPRPRPNDPPRP
- shrunken log2 fold change: 0.104

Sequence: RRIRARPPRLPRPRPRPNEEPRP
- shrunken log2 fold change: 0.276

Sequence: RRIRARPPRLPRPRPRPNENPRP
- shrunken log2 fold change: 0.177

Sequence: RRIRARPPRLPRPRPRPNERPRP
- shrunken log2 fold change: 0.531

Sequence: RRIRARPPRLPRPRPRPNFAPRP
- shrunken log2 fold change: 0.467

Sequence: RRIRARPPRLPRPRPRPNFMPRP
- shrunken log2 fold change: 0.186

Sequence: RRIRARPPRLPRPRPRPNGWPRP
- shrunken log2 fold change: 0.401

Sequence: RRIRARPPRLPRPRPRPNGYPRP
- shrunken log2 fold change: 0.122

Sequence: RRIRARPPRLPRPRPRPNHFPRP
- shrunken log2 fold change: -0.0665

Sequence: RRIRARPPRLPRPRPRPNIVPRP
- shrunken log2 fold change: 0.0466

Sequence: RRIRARPPRLPRPRPRPNKAPRP
- shrunken log2 fold change: 0.00219

Sequence: RRIRARPPRLPRPRPRPNKLPRP
- shrunken log2 fold change: -0.206

Sequence: RRIRARPPRLPRPRPRPNKSPRP
- shrunken log2 fold change: -0.174

Sequence: RRIRARPPRLPRPRPRPNLRPRP
- shrunken log2 fold change: 0.022

Sequence: RRIRARPPRLPRPRPRPNNEPRP
- shrunken log2 fold change: -0.14

Sequence: RRIRARPPRLPRPRPRPNNNPRP
- shrunken log2 fold change: -0.471

Sequence: RRIRARPPRLPRPRPRPNNVPRP
- shrunken log2 fold change: -0.0632

Sequence: RRIRARPPRLPRPRPRPNNWPRP
- shrunken log2 fold change: 0.0825

Sequence: RRIRARPPRLPRPRPRPNQIPRP
- shrunken log2 fold change: 0.0775

Sequence: RRIRARPPRLPRPRPRPNQQPRP
- shrunken log2 fold change: 0.284

Sequence: RRIRARPPRLPRPRPRPNREPRP
- shrunken log2 fold change: 0.226

Sequence: RRIRARPPRLPRPRPRPNSAPRP
- shrunken log2 fold change: 0.00853

Sequence: RRIRARPPRLPRPRPRPNSEPRP
- shrunken log2 fold change: 0.0883

Sequence: RRIRARPPRLPRPRPRPNSHPRP
- shrunken log2 fold change: -0.248

Sequence: RRIRARPPRLPRPRPRPNSRPRP
- shrunken log2 fold change: 0.0429

Sequence: RRIRARPPRLPRPRPRPNSVPRP
- shrunken log2 fold change: 0.0162

Sequence: RRIRARPPRLPRPRPRPNSWPRP
- shrunken log2 fold change: 0.422

Sequence: RRIRARPPRLPRPRPRPNTPPRP
- shrunken log2 fold change: -0.00444

Sequence: RRIRARPPRLPRPRPRPNVTPRP
- shrunken log2 fold change: 0.17

Sequence: RRIRARPPRLPRPRPRPNWSPRP
- shrunken log2 fold change: 0.225

Sequence: RRIRARPPRLPRPRPRPNYAPRP
- shrunken log2 fold change: -0.0399

Sequence: RRIRARPPRLPRPRPRPNYEPRP
- shrunken log2 fold change: -0.22

Sequence: RRIRARPPRLPRPRPRPNYIPRP
- shrunken log2 fold change: -0.414

Sequence: RRIRARPPRLPRPRPRPPALPRP
- shrunken log2 fold change: 0.415

Sequence: RRIRARPPRLPRPRPRPPASPRP
- shrunken log2 fold change: 0.77

Sequence: RRIRARPPRLPRPRPRPPCAPRP
- shrunken log2 fold change: 0.598

Sequence: RRIRARPPRLPRPRPRPPCGPRP
- shrunken log2 fold change: 0.443

Sequence: RRIRARPPRLPRPRPRPPCPPRP
- shrunken log2 fold change: 0.489

Sequence: RRIRARPPRLPRPRPRPPEFPRP
- shrunken log2 fold change: 0.558

Sequence: RRIRARPPRLPRPRPRPPENPRP
- shrunken log2 fold change: 0.576

Sequence: RRIRARPPRLPRPRPRPPEPPRP
- shrunken log2 fold change: 0.686

Sequence: RRIRARPPRLPRPRPRPPETPRP
- shrunken log2 fold change: 0.55

Sequence: RRIRARPPRLPRPRPRPPFAPRP
- shrunken log2 fold change: 0.87
